Test results taken from patent publication US9156883B2, “Binding molecules for human factor VIII and factor VIII-like proteins” (DYAX CORP., priority 1999, dated 2015).
Positions of bridges follow the written chain, without caps; N, C: chain ends. No end group written: not given here. *: point of attachment. NHNH2 = NN*

Biological target: T1, REFACTO® (Homo sapiens, UniProt P00451)
T1 construct: amino acids 1-743 and 1638 through 2332 of human factor VIII; purchased Genetics Institute, Inc. (Cambridge, Mass.)
T1 sequence (P00451 20-762): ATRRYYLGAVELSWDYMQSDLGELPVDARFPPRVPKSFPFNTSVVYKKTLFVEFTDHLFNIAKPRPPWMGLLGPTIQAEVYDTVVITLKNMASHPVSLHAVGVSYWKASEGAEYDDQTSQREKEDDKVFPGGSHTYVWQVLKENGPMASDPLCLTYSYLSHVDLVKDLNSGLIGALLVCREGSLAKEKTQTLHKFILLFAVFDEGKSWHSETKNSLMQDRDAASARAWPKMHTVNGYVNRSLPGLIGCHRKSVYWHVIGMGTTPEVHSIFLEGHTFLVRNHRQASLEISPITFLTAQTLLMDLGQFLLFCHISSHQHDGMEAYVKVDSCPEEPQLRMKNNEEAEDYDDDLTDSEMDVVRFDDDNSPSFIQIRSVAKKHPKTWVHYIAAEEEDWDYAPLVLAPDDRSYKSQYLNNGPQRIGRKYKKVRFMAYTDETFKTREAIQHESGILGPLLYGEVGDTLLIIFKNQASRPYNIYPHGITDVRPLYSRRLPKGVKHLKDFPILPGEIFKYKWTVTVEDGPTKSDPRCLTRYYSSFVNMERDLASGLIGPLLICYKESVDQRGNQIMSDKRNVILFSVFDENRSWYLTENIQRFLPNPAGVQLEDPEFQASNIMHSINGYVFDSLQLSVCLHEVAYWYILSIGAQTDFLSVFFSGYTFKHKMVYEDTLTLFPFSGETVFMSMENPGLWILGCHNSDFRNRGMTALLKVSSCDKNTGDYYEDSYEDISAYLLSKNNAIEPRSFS
T1 sequence (P00451 1657-2351): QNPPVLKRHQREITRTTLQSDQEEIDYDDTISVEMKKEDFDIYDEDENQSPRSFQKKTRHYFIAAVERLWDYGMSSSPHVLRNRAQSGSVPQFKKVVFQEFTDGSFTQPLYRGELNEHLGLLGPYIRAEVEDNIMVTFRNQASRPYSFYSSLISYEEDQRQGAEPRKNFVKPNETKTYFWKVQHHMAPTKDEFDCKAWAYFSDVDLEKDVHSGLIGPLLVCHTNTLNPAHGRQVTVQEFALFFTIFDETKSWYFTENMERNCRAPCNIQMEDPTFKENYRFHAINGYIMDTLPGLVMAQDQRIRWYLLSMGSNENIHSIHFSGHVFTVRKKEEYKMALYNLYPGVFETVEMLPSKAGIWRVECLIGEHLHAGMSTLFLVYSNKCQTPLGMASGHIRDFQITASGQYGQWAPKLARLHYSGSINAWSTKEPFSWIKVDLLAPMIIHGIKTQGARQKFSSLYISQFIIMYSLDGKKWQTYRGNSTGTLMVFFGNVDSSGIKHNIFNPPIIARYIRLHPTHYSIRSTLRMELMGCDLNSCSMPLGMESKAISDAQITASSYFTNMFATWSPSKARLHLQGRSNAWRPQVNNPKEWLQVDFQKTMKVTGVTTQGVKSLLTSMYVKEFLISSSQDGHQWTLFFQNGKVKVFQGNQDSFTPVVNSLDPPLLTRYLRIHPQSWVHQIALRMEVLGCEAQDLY
Assay: Batch binding and elution of REFACTO® with immobilized polypeptide ligands (factor VIII sandwich ELISA)
Conditions: for % of Input Recovered in: Eluate: Buffer A, 50% ethylene glycol, pH 6.3, 15 minutes; for % of Input Recovered in: Unbound: REFACTO® ~50 U in Buffer 1, 1 h RT, supernatant after binding; for % of Input Recovered in: Total: Unbound, Wash and Eluate fractions together; for % of Input Recovered in: Wash: one wash with Buffer 1
Description: A commercial ELISA kit (IMUBIND fVIII ELISA kit, Product #884, American, Inc., Greenwich, Conn.) developed to detect factor VIII was used according to the manufacturer's specifications in order to detect both the REFACTO® and the nhfVIII targets. The kit employs a sandwich ELISA assay in which the target is captured by an immobilized monoclonal antibody and the captured target is detected with a second monoclonal antibody-horseradish peroxidase (HRP) conjugate. Addition of the peroxidase substrate and its subsequent reaction with the HRP produces a blue color (detected at 630 nm) which changes to yellow (detected at 450 nm) on addition of the 0.5N sulfuric acid stop solution. Color response is calibrated with factor VIII standards provided by the manufacturer.
REFACTO® binding was tested in Buffer 1. The binding of both REFACTO® and nfhVIII were tested using three affinity resins prepared as in Example II, using the affinity peptides CS-454, CS-456, and CS-458 immobilized on Toyopearl Formyl 650-M medium. Ligand density for each polypeptide was 1.79 mg/ml (0.67 μmol/ml), 3.69 mg/ml ([…]) and 3.15 mg/ml (1.17 μmol/ml) respectively.
For each of the three immobilized peptides tested, peptide-beads from […] of a 50% slurry of Toyopearl-coupled polypeptide suspension were centrifuged briefly (30 seconds at 2000×g at room temperature), the supernatant fluid was removed, and the beads (pellets) were washed two times. For each wash, the beads were resuspended in 500 μl of Buffer 1 and centrifuged as before.
The stock solution of REFACTO® was diluted to a final concentration of 200 U/ml in Buffer 1 and 250 μl of the diluted solution (˜50 U total) was added to a washed pellet of each of the peptide-beads. The suspension was incubated on an end-over-end mixer at RT for one hour, after which binding period the beads were pelleted by centrifugation (30 seconds, 2000×g) and the supernatant solutions, representing the unbound fraction (“Unbound” in Table 7, below), were removed and retained for assay of unbound factor VIII activity.
The pelleted beads were washed one time by adding 250 μl of Buffer 1, mixed briefly and the suspension centrifuged as before. The supernatant solutions (“Wash” in Table 7) were removed and retained for assay of factor VIII activity.
The washed pellets were resuspended in 250 μl of Buffer A (20 mM L-Histidine-HCl, 250 mM NaCl, 20 mM CaCl2, 0.01% Tween 80, 50% ethylene glycol, pH 6.3) and incubated on an end-over-end mixer for 15 minutes at room temperature. At the end of the elution period, the suspensions were centrifuged as above. The supernatant solutions (“Eluate” in Table 7) were removed and retained for assay of eluted factor VIII activity.
The starting (diluted) REFACTO® solution (Input) and each sample (Unbound, Wash, and Eluate) taken as described above were diluted 1:1400 in Assay Diluent (provided with kit), then subjected to ELISA using the commercial factor VIII assay kit.

Row | Substance | % of Input Recovered in: Eluate | % of Input Recovered in: Unbound | % of Input Recovered in: Total | % of Input Recovered in: Wash
1 | AEGTGDFCWVFAFDHCHDPGPEGGGS-NHNH2 (disulfide 8-16 (inferred)) [CS-458] | 47% | 20% | 76% | 10%
2 | AEGTGDHLCGAWFRPCDADPGPEGGGS-NHNH2 (disulfide 9-16 (inferred)) [CS-454] | 49% | 24% | 85% | 
3 | AEGTGDFGCSWLFPCPFDPGPEGGGS-NHNH2 (disulfide 9-15 (inferred)) [CS-456] | 24% | 47% | 91% | 20%
